Laboratory results reported in US20170022287A1 (Chugai, published 2017).

Tests used:
[1] = target: mouse CD137 on T cells (mouse, UniProt P20334 24-256); test: cell-based or functional assay
[2] = target: full-length human CD137-Fc fusion protein (human); test: ELISA, coated CD137-Fc protein 2 µg/mL, antibody 10 or 5 µg/mL; absorbance 620 nm divided by that of the uncoated well
Procedure: (§1) Fragmented human CD137-Fc fusion proteins were diluted to 2 μg/mL in an aqueous sodium carbonate solution adjusted to pH9.6. Fifty μL of a diluted fragmented human CD137-Fc fusion protein was added individually to each well of a Nunc MaxiSorp flat-bottom 96 well plate (Nunc). This was allowed to stand at 4° C. overnight or longer, and then the plate was allowed to stand at room temperature for one hour so that the plate has the same temperature as the room temperature. The solution containing the fragmented human CD137-Fc fusion protein was removed by tilting, and each well was washed three times with 300 μL of Wash buffer (TBS containing 0.1% Tween20, TaKaRa). Next, 150 μL of blocking buffer (TBS containing 2% BSA) was added to each well, and this was allowed to stand for one hour or more. The blocking buffer was removed by tilting, and each well was washed three times with Wash Buffer in a similar manner to an earlier step. Then, 50 μL of an antibody solution prepared in advance by dilution with TBS to 10 μg/mL or 5 μg/mL was added to each well. This was subjected to a speed of 600 rpm or so for one hour at room temperature to bind the antibody to the immobilized antigen. […] 100 μL of a secondary antibody solution produced by 1000-fold dilution with TBS containing 0.1% Tween20 was added to each well. For the secondary antibody, ANTIBODY ALKALINE PHOSPHATASE CONJUGATE HUMAN IMMUNOGLOBULIN ABSORBED Goat Anti-Human Kappa Alkaline Phosphate from BIOSOURCE was used in the case of antibodies carrying a Kappa chain, and Human Lambda Light Chain Antibody; Goat anti-Human Lambda Light Chain Antibody Alkaline Phosphatase Conjugated from BETHYL LABORATORIES INC. was used in the case of antibodies carrying a Lambda chain. […] Color development was performed using the BluePhos Microwell kit from KPL. After the chromogenic reaction was stopped using the AP stop solution from KPL, the absorbance was measured at 620 nm on an absorptiometer.

[3] = target: T1, CRD1; test: ELISA, coated CD137-Fc protein 2 µg/mL, antibody 10 or 5 µg/mL, absorbance 620 nm; Non (uncoated well) 0.1705
T1 construct: also called fragmented human CD137-Fc fusion protein CRD1
T1 sequence (chain, as listed by the source limits assumed): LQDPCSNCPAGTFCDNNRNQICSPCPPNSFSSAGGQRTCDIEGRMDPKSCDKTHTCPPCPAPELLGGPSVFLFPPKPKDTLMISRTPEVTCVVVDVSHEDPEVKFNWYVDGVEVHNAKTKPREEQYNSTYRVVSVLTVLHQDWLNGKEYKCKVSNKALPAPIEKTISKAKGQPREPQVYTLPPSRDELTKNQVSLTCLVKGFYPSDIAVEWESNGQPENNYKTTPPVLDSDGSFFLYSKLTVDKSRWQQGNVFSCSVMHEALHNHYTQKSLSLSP
Procedure: as §1

[4] = target: T2, CRD1-3; test: as above
T2 construct: also called fragmented human CD137-Fc fusion protein CRD1-3
T2 sequence (chain, as listed by the source limits assumed): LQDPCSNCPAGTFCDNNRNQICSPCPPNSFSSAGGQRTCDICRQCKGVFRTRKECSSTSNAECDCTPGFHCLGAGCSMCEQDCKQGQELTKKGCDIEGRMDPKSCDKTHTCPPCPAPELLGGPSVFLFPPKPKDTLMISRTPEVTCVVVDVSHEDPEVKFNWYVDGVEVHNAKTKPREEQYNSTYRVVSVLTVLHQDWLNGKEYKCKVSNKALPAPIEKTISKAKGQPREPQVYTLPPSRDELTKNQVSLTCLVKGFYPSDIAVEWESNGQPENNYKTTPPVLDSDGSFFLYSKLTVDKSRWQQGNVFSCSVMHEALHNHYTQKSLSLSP
Procedure: as §1

[5] = target: T3, CRD1-2; test: as above
T3 construct: also called fragmented human CD137-Fc fusion protein CRD1-2
T3 sequence (chain, as listed by the source limits assumed): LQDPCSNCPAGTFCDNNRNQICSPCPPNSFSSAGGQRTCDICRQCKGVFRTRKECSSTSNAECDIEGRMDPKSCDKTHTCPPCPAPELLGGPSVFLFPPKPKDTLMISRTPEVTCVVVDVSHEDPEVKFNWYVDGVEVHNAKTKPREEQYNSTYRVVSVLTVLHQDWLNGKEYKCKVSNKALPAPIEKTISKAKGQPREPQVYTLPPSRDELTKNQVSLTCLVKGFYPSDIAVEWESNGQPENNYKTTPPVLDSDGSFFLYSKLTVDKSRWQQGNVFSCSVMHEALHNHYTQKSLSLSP
Procedure: as §1

[6] = target: T4, CRD2-4; test: as above
T4 construct: also called fragmented human CD137-Fc fusion protein CRD2-4
T4 sequence (chain, as listed by the source limits assumed): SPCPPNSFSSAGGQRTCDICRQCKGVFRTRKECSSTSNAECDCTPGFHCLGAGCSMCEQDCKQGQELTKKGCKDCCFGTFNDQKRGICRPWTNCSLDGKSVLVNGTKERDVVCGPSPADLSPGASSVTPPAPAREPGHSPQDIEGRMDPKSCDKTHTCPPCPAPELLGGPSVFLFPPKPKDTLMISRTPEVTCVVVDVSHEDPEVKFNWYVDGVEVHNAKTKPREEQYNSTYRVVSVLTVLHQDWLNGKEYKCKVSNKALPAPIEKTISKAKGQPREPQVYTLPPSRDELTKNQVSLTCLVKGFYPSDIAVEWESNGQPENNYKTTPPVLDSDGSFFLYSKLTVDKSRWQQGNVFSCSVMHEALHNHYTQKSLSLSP
Procedure: as §1

[7] = target: T5, CRD2-3; test: as above
T5 construct: also called fragmented human CD137-Fc fusion protein CRD2-3
T5 sequence (chain, as listed by the source limits assumed): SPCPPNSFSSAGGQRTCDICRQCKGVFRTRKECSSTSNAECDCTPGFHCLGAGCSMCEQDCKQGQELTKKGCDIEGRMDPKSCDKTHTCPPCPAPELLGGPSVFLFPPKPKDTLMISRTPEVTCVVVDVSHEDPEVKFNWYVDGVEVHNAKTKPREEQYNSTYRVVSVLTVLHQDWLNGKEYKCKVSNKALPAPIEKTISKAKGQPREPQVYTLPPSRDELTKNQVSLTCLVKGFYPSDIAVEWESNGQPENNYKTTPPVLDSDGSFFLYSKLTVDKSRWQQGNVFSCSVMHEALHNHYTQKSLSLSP
Procedure: as §1

[8] = target: T6, CRD3-4; test: as above
T6 construct: also called fragmented human CD137-Fc fusion protein CRD3-4
T6 sequence (chain, as listed by the source limits assumed): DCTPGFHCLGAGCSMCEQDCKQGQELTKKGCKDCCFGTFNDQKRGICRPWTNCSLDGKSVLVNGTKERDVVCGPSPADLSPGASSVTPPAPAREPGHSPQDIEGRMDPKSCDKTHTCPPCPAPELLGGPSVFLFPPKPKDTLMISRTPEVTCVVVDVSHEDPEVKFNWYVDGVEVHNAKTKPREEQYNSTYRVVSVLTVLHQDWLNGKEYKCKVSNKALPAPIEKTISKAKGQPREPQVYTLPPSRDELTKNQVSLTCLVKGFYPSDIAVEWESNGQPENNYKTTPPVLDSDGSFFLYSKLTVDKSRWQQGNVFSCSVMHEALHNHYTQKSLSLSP
Procedure: as §1

[9] = target: full-length human CD137-Fc fusion protein (human); test: as above
Procedure: as §1

[10] = target: T1, CRD1; test: ELISA, coated CD137-Fc protein 2 µg/mL, antibody 10 or 5 µg/mL; absorbance 620 nm divided by that of the uncoated well
Procedure: as §1

[11] = target: T2, CRD1-3; test: as above
Procedure: as §1

[12] = target: T3, CRD1-2; test: as above
Procedure: as §1

[13] = target: T4, CRD2-4; test: as above
Procedure: as §1

[14] = target: T5, CRD2-3; test: as above
Procedure: as §1

[15] = target: T6, CRD3-4; test: as above
Procedure: as §1

[16] = target: T7, mouse Fcγ receptor III extracellular domain with C-terminal His tag (mouse, UniProt P08508 31-215); test: SPR (Biacore) kinetics, antibody captured on Protein L, mFcγR as analyte, 1:1 Langmuir model
T7 construct: extracellular domain; also called mFcγRIII; not shown: His tag at the C terminus
T7 sequence (looked up): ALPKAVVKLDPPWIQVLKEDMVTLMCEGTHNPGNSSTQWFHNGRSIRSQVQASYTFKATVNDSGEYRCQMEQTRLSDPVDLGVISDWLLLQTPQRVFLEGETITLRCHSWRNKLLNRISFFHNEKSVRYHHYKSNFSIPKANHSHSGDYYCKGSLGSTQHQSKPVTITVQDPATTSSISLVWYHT

Sequence of full-length human CD137-Fc fusion protein (human) (chain, as listed by the source limits assumed): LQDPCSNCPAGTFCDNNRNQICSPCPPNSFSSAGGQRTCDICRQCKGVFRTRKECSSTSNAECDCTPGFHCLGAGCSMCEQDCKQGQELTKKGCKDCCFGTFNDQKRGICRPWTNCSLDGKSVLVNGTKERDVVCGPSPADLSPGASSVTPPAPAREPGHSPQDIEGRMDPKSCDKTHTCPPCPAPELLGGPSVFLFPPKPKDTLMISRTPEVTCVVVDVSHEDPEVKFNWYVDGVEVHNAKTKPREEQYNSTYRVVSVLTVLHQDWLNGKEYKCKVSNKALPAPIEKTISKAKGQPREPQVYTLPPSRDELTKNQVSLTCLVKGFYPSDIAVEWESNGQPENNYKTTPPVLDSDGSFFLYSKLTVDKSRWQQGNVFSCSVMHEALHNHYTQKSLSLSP
Sequence of mouse CD137 on T cells (P20334 24-256): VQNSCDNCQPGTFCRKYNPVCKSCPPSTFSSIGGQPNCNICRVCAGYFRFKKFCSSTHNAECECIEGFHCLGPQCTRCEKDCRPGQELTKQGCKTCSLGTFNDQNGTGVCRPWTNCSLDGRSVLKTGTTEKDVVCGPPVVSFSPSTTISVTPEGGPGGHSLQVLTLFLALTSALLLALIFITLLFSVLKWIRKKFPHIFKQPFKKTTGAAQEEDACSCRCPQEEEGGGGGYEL

B1: 1D8VH-MB492/1D8VL-mk0 (antibody, mouse IgG1, kappa, V domains shown)
VH: QVQLKEAGPGLVQPTQTLSLTCTVSGFSLTSDGVHWIRQPPGKGLEWMGIIYYDGGTDYNSAIKSRLSISRDTSKSQVFLKINSLQTDDTAMYYCARIHFDYWGQGVMVTVSS
VL: DIVLTQSPTTIAASPGEKVTITCRASSSVSYMYWYQQKSGASPKLWIYDTSKLASGVPNRFSGSGSGTSYSLAINTMETEDAATYYCQQWSSTPLTFGSGTKLEIKR
specific activity, mouse IFN-γ in the supernatant of spleen cells (ELISA) [1]: ~8 fold

B2: R12 (antibody, V domains shown)
VH: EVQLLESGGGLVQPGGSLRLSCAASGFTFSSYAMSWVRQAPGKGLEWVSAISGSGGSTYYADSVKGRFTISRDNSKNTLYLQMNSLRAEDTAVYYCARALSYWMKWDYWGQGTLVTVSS
VL: DIQMTQSPSSLSASVGDRVTITCRASQSISSYLNWYQQKPGKAPKLLIYAASSLQSGVPSRFSGSGSGTDFTLTISSLQPEDFATYYCQQFNGFPLTFGGGTKVEIK
notes: Synthetic library clone; Fab on phage in the phage ELISA
Ratio with respect to Non-Coating [2]: 1.1

B3: R15 (antibody, V domains shown)
VH: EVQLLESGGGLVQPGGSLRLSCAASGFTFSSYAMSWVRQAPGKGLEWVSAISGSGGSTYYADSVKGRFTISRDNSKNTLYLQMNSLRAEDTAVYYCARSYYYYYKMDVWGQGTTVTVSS
VL: DIQMTQSPSSLSASVGDRVTITCRASQSISSYLNWYQQKPGKAPKLLIYAASSLQSGVPSRFSGSGSGTDFTLTISSLQPEDFATYYCQQFVRHPPTFGGGTKVEIK
notes: as for B2
Ratio with respect to Non-Coating [2]: 0.6

B4: R16 (antibody, V domains shown)
VH: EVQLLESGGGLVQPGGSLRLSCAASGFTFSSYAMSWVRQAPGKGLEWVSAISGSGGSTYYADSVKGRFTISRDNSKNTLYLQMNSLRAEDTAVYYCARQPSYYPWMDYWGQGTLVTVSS
VL: DIQMTQSPSSLSASVGDRVTITCRASQSISSYLNWYQQKPGKAPKLLIYAASSLQSGVPSRFSGSGSGTDFTLTISSLQPEDFATYYCQQFNNYPLTFGGGTKVEIK
notes: as for B2
ELISA color development level [3]: 0.286 | ELISA color development level [4]: 2.24 | ELISA color development level [5]: 0.269 | ELISA color development level [6]: 2.17 | ELISA color development level [7]: 2.54 | ELISA color development level [8]: 2.63 | ELISA color development level [9]: 1.93 | Ratio with respect to Non-Coating [10]: 1.7 | Ratio with respect to Non-Coating [11]: 13.1 | Ratio with respect to Non-Coating [12]: 1.6 | Ratio with respect to Non-Coating [13]: 12.7 | Ratio with respect to Non-Coating [14]: 14.9 | Ratio with respect to Non-Coating [15]: 15.4 | Ratio with respect to Non-Coating [2]: 11.3

B5: R8 (antibody, V domains shown)
VH: QVQLQESGPGLVKPSETLSLTCAVSGYSISSGYYWGWIRQPPGKGLEWIGSIYHSGSTYYNPSLKSRVTISVDTSKNQFSLKLSSVTAADTAVYYCARQHSFTRYYGYYYFDYWGQGTTVTVSS
VL: DIQMTQSPSSLSASVGDRVTITCRASQSISSYLNWYQQKPGKAPKLLIYAASSLQSGVPSRFSGSGSGTDFTLTISSLQPEDFATYYCLQSDSIPLTFGGGTKVEIK
notes: as for B2
Ratio with respect to Non-Coating [10]: 0.7 | Ratio with respect to Non-Coating [12]: 0.5

B6: R11 (antibody, V domains shown)
VH: QVQLLESGGGLVQPGGSLRLSCAASGFTFSSYAMSWVRQAPGKGLEWVSAISGSGGSTYYADSVKGRFTISRDNSKNTLYLQMNSLRAEDTAVYYCARDKWYYYPALDYWGQGTLVTVSS
VL: DIQMTQSPSSLSASVGDRVTITCRASQSISSYLNWYQQKPGKAPKLLIYAASSLQSGVPSRFSGSGSGTDFTLTISSLQPEDFATYYCQQFSRFPLTFGGGTKVEIK
notes: as for B2
Ratio with respect to Non-Coating [2]: 1

B7: R14 (antibody, V domains shown)
VH: QVQLLESGGGLVQPGGSLRLSCAASGFTFSSYAMSWVRQAPGKGLEWVSAISGSGGSTYYADSVKGRFTISRDNSKNTLYLQMNSLRAEDTAVYYCARDKWYYYPALDYWGQGTLVTVSS
VL: DIQMTQSPSSLSASVGDRVTITCRASQSISSYLNWYQQKPGKAPKLLIYAASSLQSGVPSRFSGSGSGTDFTLTISSLQPEDFATYYCLQVYRSPLTFGGGTKVEIK
notes: as for B2
Ratio with respect to Non-Coating [2]: 0.9

B8: R13 (antibody, V domains shown)
VH: QVQLVESGGGLVQPGGSLRLSCAASGFTFSYYDIQWVRQAPGKGLEWVSSISPSGQSTYYRREVKGRFTISRDNSKNTLYLQMNSLRAEDTAVYYCARRTGREYGGGWYFDYWGQGTLVTVSS
VL: DIQMTQSPSSLSASVGDRVTITCRASQSISSYLNWYQQKPGKAPKLLIYAASSLQSGVPSRFSGSGSGTDFTLTISSLQPEDFATYYCQQFSRFPLTFGGGTKVEIK
notes: as for B2
Ratio with respect to Non-Coating [2]: 0.4

B9: R19 (antibody, V domains shown)
VH: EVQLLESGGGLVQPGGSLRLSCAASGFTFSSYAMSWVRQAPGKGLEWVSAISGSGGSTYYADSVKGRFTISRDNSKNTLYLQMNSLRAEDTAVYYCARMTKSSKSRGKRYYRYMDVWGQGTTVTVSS
VL: DIQMTQSPSSLSASVGDRVTITCRASQSISSYLNWYQQKPGKAPKLLIYAASSLQSGVPSRFSGSGSGTDFTLTISSLQPEDFATYYCLQVYSSPLTFGGGTKVEIK
notes: as for B2
Ratio with respect to Non-Coating [2]: 0.9

B10: H237-mIgG1/MRAL-k0 (antibody)
heavy: QVQLQESGPGLVKPSETLSLTCAVSGHSISHDHAWSWVRQPPGEGLEWIGFISYSGITNYNPSLQGRVTISRDNSKNTLYLQMNSLRAEDTAVYYCARSLARTTAMDYWGEGTLVTVSSAKTTPPSVYPLAPGSAAQTNSMVTLGCLVKGYFPEPVTVTWNSGSLSSGVHTFPAVLQSDLYTLSSSVTVPSSTWPSETVTCNVAHPASSTKVDKKIVPRDCGCKPCICTVPEVSSVFIFPPKPKDVLTITLTPKVTCVVVDISKDDPEVQFSWFVDDVEVHTAQTQPREEQFNSTFRSVSELPIMHQDWLNGKEFKCRVNSAAFPAPIEKTISKTKGRPKAPQVYTIPPPKEQMAKDKVSLTCMITDFFPEDITVEWQWNGQPAENYKNTQPIMDTDGSYFVYSKLNVQKSNWEAGNTFTCSVLHEGLHNHHTEKSLSHSPGK
light: not shown
notes: Anti-human IL-6 receptor variable region H237 with mouse IgG1 constant region; copies: 2 + 2
Kd [16]: 282 nM
